Experimental data: publication PMC3696110, “Hsp70 Oligomerization Is Mediated by an Interaction between the Interdomain Linker and the Substrate-Binding Domain” (PLoS ONE, 2013)

Target: T1, SBD641 (human Hsp70 residues 384-641) (human, UniProt P0DMV8 384-641)
T1 construct: Thrombin cleavage of the His tag is stated as >99% for all variants; also called full-length SBD; not shown: His6, N-terminal, cleaved
Assay: native MS; nESI-MS of SBD641 in the presence of NR peptide at a 1:1 molar ratio; 150 mM ammonium acetate, pH 7.4
Conditions: both partners purified

T1 sequence (P0DMV8 384-641): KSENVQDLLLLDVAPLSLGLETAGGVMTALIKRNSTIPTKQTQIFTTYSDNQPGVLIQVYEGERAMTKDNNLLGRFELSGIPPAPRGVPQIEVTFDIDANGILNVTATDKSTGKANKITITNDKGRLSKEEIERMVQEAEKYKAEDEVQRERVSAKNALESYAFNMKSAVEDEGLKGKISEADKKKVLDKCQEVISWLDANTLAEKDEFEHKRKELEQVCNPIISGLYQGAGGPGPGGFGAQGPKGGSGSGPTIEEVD

binding result: binds
B1: NR peptide (NRLLLTG), non-dansylated (peptide)
peptide: NRLLLTG
notes: model Hsp70 substrate peptide; the peptide of that experiment may have carried the dansyl group (surmise); also called ND-NR; source: synthetic peptide (Genemed Synthesis Inc.)
